Laboratory results from patent US20240400708A1.
Positions count from the first letter of the chain named. In names and notes the source's numbering stands.

B1: feline IgG1a mutant ID No. 246: S252Y, S428M, S434W (antibody, part only; not given: Variable domains, not shown: another chain or arm of the molecule)
constant: ASTTAPSVFPLAPSCGTTSGATVALACLVLGYFPEPVTVSWNSGALTSGVHTFPAVLQASGLYSLSSMVTVPSSRWLSDTFTCNVAHPPSNTKVDKTVRKTDHPPGPKPCDCPKCPPPEMLGGPSIFIFPPKPKDTLYISRTPEVTCLVVDLGPDDSDVQITWFVDNTQVYTAKTSPREEQFNSTYRVVSVLPILHQDWLKGKEFKCKVNSKSLPSPIERTISKAKGQPHEPQVYVLPPAQEELSRNKVSVTCLIKSFHPPDIAVEWEITGQPEPENNYRTTPPQLDSDGTYFVYSKLSVDRSHWQRGNTYTCSVMHEALHWHHTQKSLTQSPGK
B2: feline IgG1a mutant ID No. 276: S252R, S434R, Q311W (antibody, part only; not given: variable domains and light chain, not shown: another chain or arm of the molecule)
constant: B1 constant with Y138R, Q197W, M316S, W322R
B3: feline IgG1a mutant ID No. 270: S252F, S434W, Q311W (antibody, part only; not given: variable domains and light chain, not shown: another chain or arm of the molecule)
constant: B1 constant with Y138F, Q197W, M316S
B4: feline IgG1a mutant ID No. 247: S252Y, S428M, S434Y (antibody, part only; not given: Variable domains, not shown: another chain or arm of the molecule)
constant: B1 constant with W322Y
B5: feline IgG1a mutant ID No. 292: S252Y, S428Y, Q311W, D312P, L314K, S434Y (antibody, part only; not given: variable domains and light chain, not shown: another chain or arm of the molecule; small tags and cut ends)
constant: B1 constant with Q197W, D198P, L200K, M316Y, W322Y
B6: feline IgG1a mutant ID No. 272: S252R, S434F (antibody, part only; not given: variable domains, not shown: another chain or arm of the molecule)
constant: B1 constant with Y138R, M316S, W322F
B7: feline IgG1a mutant ID No. 277: S252R, S434W (antibody, part only; not given: Variable domains, not shown: another chain or arm of the molecule)
constant: B1 constant with Y138R, M316S
B8: feline IgG1a mutant ID No. 250: S428M, Q311W (antibody, part only; not given: Variable domains, not shown: another chain or arm of the molecule)
constant: B1 constant with Y138S, Q197W, W322S
B9: feline IgG1a mutant ID No. 289: S252Y, S428Y, L314K, S434Y (antibody, part only; not given: Variable domains, not shown: another chain or arm of the molecule)
constant: B1 constant with L200K, M316Y, W322Y
B10: feline IgG1a mutant ID No. 285: S252Y, Q311W, L314K, S434Y (antibody, part only; not given: Variable domains, not shown: another chain or arm of the molecule)
constant: B1 constant with Q197W, L200K, M316S, W322Y
B11: feline IgG1a mutant ID No. 257: S428M, S434Y (antibody, part only; not given: Variable domains, not shown: another chain or arm of the molecule)
constant: B1 constant with Y138S, W322Y
B12: feline IgG1a mutant ID No. 287: S252Y, S428Y, D312P, L314K, S434Y (antibody, part only; not given: Variable domains, not shown: another chain or arm of the molecule)
constant: B1 constant with D198P, L200K, M316Y, W322Y
B13: feline IgG1a mutant ID No. 251: S428M, Q311Y (antibody, part only; not given: Variable domains, not shown: another chain or arm of the molecule)
constant: B1 constant with Y138S, Q197Y, W322S
B14: feline IgG1a mutant ID No. 293: S252Y, S428Y, Q311W, D312P, S434Y (antibody, part only; not given: Variable domains, not shown: another chain or arm of the molecule; small tags and cut ends)
constant: B1 constant with Q197W, D198P, M316Y, W322Y
B15: feline IgG1a mutant ID No. 256: S428M, S434W (antibody, part only; not given: variable domains and light chain, not shown: another chain or arm of the molecule)
constant: B1 constant with Y138S
B16: feline IgG1a mutant ID No. 273: S252R, S434F, Q311W (antibody, part only; not given: Variable domains, not shown: another chain or arm of the molecule)
constant: B1 constant with Y138R, Q197W, M316S, W322F
B17: feline IgG1a mutant ID No. 296: S252Y, S428Y, Q311W, S434Y (antibody, part only; not given: Variable domains, not shown: another chain or arm of the molecule; small tags and cut ends)
constant: B1 constant with Q197W, M316Y, W322Y
B18: feline IgG1a mutant ID No. 249: S428M, L314K (antibody, part only; not given: variable domains and light chain, not shown: another chain or arm of the molecule; small tags and cut ends)
constant: B1 constant with Y138S, L200K, W322S
B19: feline IgG1a mutant ID No. 248: S428M, D312P (antibody, part only; not given: Variable domains, not shown: another chain or arm of the molecule)
constant: B1 constant with Y138S, D198P, W322S
B20: feline IgG1a mutant ID No. 282: S252Y, Q311W, D312P, L314K (antibody, part only; not given: Variable domains, not shown: another chain or arm of the molecule)
constant: B1 constant with Q197W, D198P, L200K, M316S, W322S
B21: feline IgG1a mutant ID No. 280: S252R, S434Y, Q311W (antibody, part only; not given: Variable domains, not shown: another chain or arm of the molecule)
constant: B1 constant with Y138R, Q197W, M316S, W322Y
B22: feline IgG1a mutant ID No. 303: A431K, S434Y (antibody, part only; not given: variable domains and light chain, not shown: another chain or arm of the molecule)
constant: B1 constant with Y138S, M316S, A319K, W322Y
B23: feline IgG1a mutant ID No. 271: S252F, S434Y, Q311W (antibody, part only; not given: Variable domains, not shown: another chain or arm of the molecule)
constant: B1 constant with Y138F, Q197W, M316S, W322Y
B24: feline IgG1a mutant ID No. 268: S252F, S434H, Q311W (antibody, part only; not given: Variable domains, not shown: another chain or arm of the molecule)
constant: B1 constant with Y138F, Q197W, M316S, W322H
B25: feline IgG1a mutant ID No. 266: Q311W, L314K, S434Y (antibody, part only; not given: Variable domains, not shown: another chain or arm of the molecule)
constant: B1 constant with Y138S, Q197W, L200K, M316S, W322Y
B26: feline IgG1a mutant ID No. 297: S428Y, D312P, L314K, S434Y (antibody, part only; not given: Variable domains, not shown: another chain or arm of the molecule)
constant: B1 constant with Y138S, D198P, L200K, M316Y, W322Y
B27: feline IgG1a mutant ID No. 291: S252Y, S428Y, Q311W, D312P, L314K (antibody, part only; not given: Variable domains, not shown: another chain or arm of the molecule; small tags and cut ends)
constant: B1 constant with Q197W, D198P, L200K, M316Y, W322S
B28: feline IgG1a mutant ID No. 290: S252Y, S428Y, Q311W, D312P (antibody, part only; not given: Variable domains, not shown: another chain or arm of the molecule; small tags and cut ends)
constant: B1 constant with Q197W, D198P, M316Y, W322S
B29: feline IgG1a mutant ID No. 294: S252Y, S428Y, Q311W, L314K (antibody, part only; not given: variable domains and light chain, not shown: another chain or arm of the molecule; small tags and cut ends)
constant: B1 constant with Q197W, L200K, M316Y, W322S
B30: feline IgG1a mutant ID No. 300: S428Y, Q311W, D312P, S434Y (antibody, part only; not given: Variable domains, not shown: another chain or arm of the molecule)
constant: B1 constant with Y138S, Q197W, D198P, M316Y, W322Y
B31: feline IgG1a mutant ID No. 288: S252Y, S428Y, D312P, S434Y (antibody, part only; not given: Variable domains, not shown: another chain or arm of the molecule)
constant: B1 constant with D198P, M316Y, W322Y
B32: feline IgG1a mutant ID No. 274: S252R, S434H, Q311W (antibody, part only; not given: Variable domains, not shown: another chain or arm of the molecule)
constant: B1 constant with Y138R, Q197W, M316S, W322H
B33: feline IgG1a mutant ID No. 299: S428Y, Q311W, D312P, L314K, S434Y (antibody, part only; not given: variable domains and light chain, not shown: another chain or arm of the molecule)
constant: B1 constant with Y138S, Q197W, D198P, L200K, M316Y, W322Y
B34: feline IgG1a mutant ID No. 281: S252Y, D312P, L314K, S434Y (antibody, part only; not given: Variable domains, not shown: another chain or arm of the molecule)
constant: B1 constant with D198P, L200K, M316S, W322Y
B35: feline IgG1a mutant ID No. 283: S252Y, Q311W, D312P, L314K, S434Y (antibody, part only; not given: Variable domains, not shown: another chain or arm of the molecule)
constant: B1 constant with Q197W, D198P, L200K, M316S, W322Y
B36: feline IgG1a mutant ID No. 301: S428Y, Q311W, L314K, S434Y (antibody, part only; not given: Variable domains, not shown: another chain or arm of the molecule)
constant: B1 constant with Y138S, Q197W, L200K, M316Y, W322Y
B37: feline IgG1a mutant ID No. 295: S252Y, S428Y, Q311W, L314K, S434Y (antibody, part only; not given: Variable domains, not shown: another chain or arm of the molecule; small tags and cut ends)
constant: B1 constant with Q197W, L200K, M316Y, W322Y
B38: feline IgG1a mutant ID No. 267: S252F, S434F, Q311W (antibody, part only; not given: Variable domains, not shown: another chain or arm of the molecule)
constant: B1 constant with Y138F, Q197W, M316S, W322F
B39: feline IgG1a mutant ID No. 308: P247V, S252H (antibody, part only; not given: Variable domains, not shown: another chain or arm of the molecule; small tags and cut ends)
constant: B1 constant with P133V, Y138H, M316S, W322S
B40: feline IgG1a mutant ID No. 252: S428M, S434F (antibody, part only; not given: variable domains and light chain, not shown: another chain or arm of the molecule)
constant: B1 constant with Y138S, W322F
B41: feline IgG1a mutant ID No. 269: S252F, S434R, Q311W (antibody, part only; not given: Variable domains, not shown: another chain or arm of the molecule)
constant: B1 constant with Y138F, Q197W, M316S, W322R
B42: feline IgG1a mutant ID No. 279: S252R, S434Y (antibody, part only; not given: Variable domains, not shown: another chain or arm of the molecule)
constant: B1 constant with Y138R, M316S, W322Y
B43: feline IgG1a mutant ID No. 254: S428M, S434N (antibody, part only; not given: Variable domains, not shown: another chain or arm of the molecule)
constant: B1 constant with Y138S, W322N

Tests used:
[1] = molecular target: feline FcRn complex (FcRn-α subunit and β-microglobulin) (feline); assay: SPR (Biacore), FcRn on SA chip, pH 6
[2] = molecular target: feline FcRn complex (FcRn-α subunit and β-microglobulin) (feline); assay: SPR (Biacore), FcRn on SA chip, pH 7.4

Molecule | Kd [1] | Kd [2]
feline IgG1a mutant ID No. 365: S252Y, S434R, E430I (antibody) | 0.296 nM | 28.9 nM
feline IgG1a mutant ID No. 260: S252Y, S254T, T256E (antibody) | 13.2 nM | 66.5 nM
feline IgG1a mutant ID No. 358: S252Y, S434R, A431K (antibody) | 0.748 nM | 28.3 nM
feline IgG1a mutant ID No. 278: S252R, S434H, Q311W (antibody) | 5.45 nM | 5910 nM
B1 | 0.0406 nM | 7.91 nM
B2 | 28.7 nM | 14800 nM
B3 | 3.68 nM | 2640 nM
B4 | 0.0902 nM | 7.65 nM
B5 | 4.01 nM | 2720 nM
B6 | 7.96 nM | 11900 nM
B7 | 7.1 nM | 6600 nM
B8 | 5.56 nM | 33.2 nM
B9 | 0.808 nM | 132 nM
B10 | 1.21 nM | 1730 nM
B11 | 0.264 nM | 21.9 nM
B12 | 0.633 nM | 127 nM
B13 | 5.83 nM | 20.3 nM
B14 | 1.07 nM | 2930 nM
B15 | 0.193 nM | 31.6 nM
B16 | 4.77 nM | 4760 nM
B17 | 0.544 nM | 1480 nM
B18 | 0.978 nM | 19300 nM
B19 | 5.7 nM | 23.7 nM
B20 | 30 nM | 119 nM

Molecule | Kd [1] | Kd [2]
B21 | 2.87 nM | 4400 nM
B22 | 1.33 nM | 26.3 nM
B23 | 0.0969 nM | 6.21 nM
B24 | 14.3 nM | 10700 nM
B25 | 2.8 nM | 388 nM
B26 | 0.898 nM | 82.9 nM
B27 | 39.7 nM | 16700 nM
B28 | 3.08 nM | 254 nM
B29 | 0.692 nM | 12.8 nM
B30 | 0.235 nM | 182 nM
B31 | 0.0268 nM | 3.22 nM
B32 | 5.62 nM | 3850 nM
B33 | 1.17 nM | 79.6 nM
B34 | 2.35 nM | 1590 nM
B35 | 1.14 nM | 300 nM
B36 | 1.11 nM | 494 nM
B37 | 0.675 nM | 201 nM
B38 | 4.15 nM | 4030 nM
B39 | 5.61 nM | 17.9 nM
B40 | 0.19 nM | 27.4 nM
B41 | 11.3 nM | 1520 nM
B42 | 10.8 nM | 12100 nM
B43 | 10.6 nM | 8.83 nM
